Experimental data published in patent publication US10765761B2, “Nucleic acid condensing peptide, nucleic acid condensing peptide set, nucleic acid delivery carrier, nucleic acid delivery method, cell production method, cell detection method and kit” (KABUSHIKI KAISHA TOSHIBA, priority 2016, dated 2020).

Key:
[1] = system: plasmid; test: Amount of encapsulation of plasmid in liposome (Quant-iT PicoGreen dsDNA assay kit), Example 3; assay type: physicochemical
Procedure: COATSOME/SS-20 (Nippon Oil & Fats), DOPE, cholesterol and DMG-PEG were dissolved into ethanol at a molar ratio of 5:3:1:0.3, to obtain a lipid solution. Two sets of lipid solutions (0.5 ml) put into tubes were prepared, and 0.5 ml of peptide-nucleic-acid solutions (8) (mHP-1) and (16) (mHP-3) of Example 1 were dropped thereto while stirring each lipid solution, thereby forming liposomes. 9 ml of 10 mM-HEPES (pH: 5.3) was added to each of the liposome solutions to make a total amount of 10 ml (each liposome solution will be referred to as “Complex” hereinafter). Further, on an assumption that the liposome is taken into an organism, and liposome solutions (which will be referred to as “HEPES replacement”) in which ethanol, which is the solvent of Complex is substituted by HEPES were produced. The HEPES replacements were produced by condensing each solution of Complex to 1.5 ml with an ultrafiltration film for 300 kDa, adding 8.5 ml of 100 mM-HEPES (pH: 7.4) to each, performing ultrafiltration, thereafter substituting the solvent with 10 mM-HEPES (pH: 7.4), and finally condensing to 0.5 ml. Further, the HEPES replacements were filtered for sterilization with a filter with a pore diameter of 0.45 μm to prepare solutions (which will be referred to as “0.45 μm” hereinafter).
The “peptide-nucleic-acid solution”, “HEPES substituent” and “0.45 micrometer”, each of which contain the protamine, mHP-1 or mHP-3 prepared as above were examined in terms of average particle diameter of liposome, Zeta potential and amount of encapsulation of plasmid. The average particle diameter and Zeta potential were measured using a zetasizer. The amount of encapsulation of plasmid was measured using a Quant-iT PicoGreen (registered trademark) dsDNA assay kit.

[2] = system: plasmid vector (pDNA); test: Average particle diameter and Zeta potential of peptide-nucleic-acid complexes (zetasizer), Example 1; assay type: physicochemical; settings: for characteristics of condensing the nucleic acid: judged from particle diameter and its dispersion (Table 2, FIGS. 4 and 5)
Procedure: The condensability of the nucleic acid by the peptide of the embodiment and the potential of the peptide-nucleic-acid complex were evaluated.
The peptides were each dissolved in 10 mM of HEPES (pH: 5.3) to prepare several peptide solutions having different peptide concentrations.
For the protamine, three peptide solutions were prepared to have peptide concentrations of: (1) 2.1 mg/ml, (2) 2.4 mg/ml and (3) 2.7 mg/ml. For the mHP-4, four peptide solutions were prepared to have peptide concentrations of: (4) 1.8 mg/ml, (5) 2.1 mg/ml, (6) 2.4 mg/ml and (7) 2.7 mg/ml. For the mHP-1, three peptide solutions were prepared to have peptide concentrations of: (8) 2.1 mg/ml, (9) 2.4 mg/ml and (10) 2.7 mg/ml. For the mHP-2, five peptide solutions were prepared to have peptide concentrations of: (11) 1.2 mg/ml, (12) 1.5 mg/ml, (13) 2.1 mg/ml, (14) 2.4 mg/ml and (15) 2.7 mg/ml. For the mHP-3, three peptide solutions were prepared to have peptide concentrations of: (16) 2.1 mg/ml, (17) 2.4 mg/ml and (18) 2.7 mg/ml. Further, plasmid vector (pDNA) was diluted with purified water to prepare a nucleic acid solution having a pDNA concentration of 3.0 mg/ml.
18 sets of nucleic acid solutions (90 μL) put in tubes were prepared and the peptide solutions (1) to (18) (90 μL) described above were dropped respectively therein and mixed while stirring each, to condense the nucleic acids. Thus, the peptide-nucleic-acid complexes were obtained. Then, the mixtures were each diluted with purified water to 25-fold to produce peptide-nucleic-acid solutions. Further, as references, samples containing only each respective peptide were also prepared without adding the nucleic acid solutions thereto.
The average particle diameter and Zeta potential of each of the peptide-nucleic-acid complexes were investigated using the peptide-nucleic-acid solutions. The average particle diameter and Zeta potential were measured using a zetasizer.

[3] = system: nucleic acid; test: Gel retardation assay: encapsulation of nucleic acid to liposome, Example 4; settings: Complex with SDS 1% (liposome cleaved), 0.8% agarose gel (FIG. 9)
Procedure: The encapsulation of nucleic acid to liposome by the peptide of the embodiment was evaluated with a gel retardation assay.
As samples for the encapsulation evaluation, two sets of 8.0 μL of 10 mM-HEPES (pH: 7.0) were prepared and 1.0 μL of solutions of Complex respectively containing the mHP-1 or mHP-3 of Example 3 and sodium dodecyl sulfate (SDS, the final concentration: 1%) which cleavages liposome were added thereto, to prepare mixtures. In addition, as controls, a mixture to which 1.0 μL of a poly-glutamic-acid (PGA) solution was added in place of SDS, and a sample which contains neither SDS nor PGA were prepared. After the solutions were let stand still for 15 minutes at room temperature, 1.0 μL of an electrophoretic buffer (50%-sucrose solution) was added to each mixture, and they were mixed well, to carry out electrophoresis with a 0.8%-agarose gel. After the electrophoresis, the gel was immersed in an ethidium bromide solution to dye the nucleic acid and the gel was photographed while irradiating it with UV, thus detecting the nucleic acid.
FIG. 9 is a photograph taken by irradiating the agarose gel with UV.

[4] = pDNA/peptide 1/0.7 (peptide conc. 2.1 mg/mL)
[5] = pDNA/peptide 1/0.8 (peptide conc. 2.4 mg/mL)
[6] = pDNA/peptide 1/0.9 (peptide conc. 2.7 mg/mL)
[7] = peptide solely, no nucleic acid (Reference)

Sequence | Plasmid inclusion amount ([1]; 0.45 μm filtered) [µg/mL] | Plasmid inclusion amount ([1]; HEPES substitution) [µg/mL] | characteristics of condensing the nucleic acid [2] | Average particle diameter (zAve) [2, 4] [nm] | Zeta potential [2, 4] [mV] | Average particle diameter (zAve) [2, 5] [nm] | Zeta potential [2, 5] [mV] | Average particle diameter (zAve) [2, 6] [nm] | Zeta potential [2, 6] [mV] | Average particle diameter (zAve) [2, 7] [nm] | Zeta potential [2, 7] [mV] | encapsulation of nucleic acid in liposome [3]
RQRQRGGRRRRRR (Nucleic acid condensing peptide) [mHP-3] | 84.14 | 96.94 | excellent | 135.8 | −28.1 | 134.9 | −25.9 | 148.2 | −28.3 | 322.9 | 17.0 | encapsulated well
RQRQRYYRQRQRGGRRRRRR (Nucleic acid condensing peptide) [mHP-1] | 37.30 | 42.12 | excellent | 124.0 | −28.2 | 133.4 | −26.7 | 158.0 | −25.5 | 444.0 | 37.2 | encapsulated well
